B1: human TGFβ receptor 1 (receptor, UniProt P36897 34-126, looked up)
chain: LQCFCHLCTKDNFTCVTDGLCFVSVTETTDKVIHNSMCIAEIDLIPRDRPFVCAPSSKTGSVTTTYCCNQDHCNKIELPTTVKSSPGLGPVEL
notes: Immobilised on a CM5 sensor by direct amine coupling; also called TGFβ R1; TGF-bR1
B2: polypeptide of SEQ ID NO:31 (a specific polypeptide of SEQ ID NO: 10, s1m1 family VacA-derived polypeptide) (other)
chain: AFFTTVIIPAIVGGIATGTAVGTVSGLLGWGLKQAEEANKTPDKPDKVWRIQAGKGFNEFPNKEYDLYKSLLSSKIDGGWDWGNAATHYWIKGGQWNKLEVDMKDAVGTYKLSGLRNFTGGDLDVNMQKATLRLGQFNGNSFTSYKDSADRTTRVDFNAKNILIDNFLEINNRVGSGAGRKASSTVLTLQASEGITSSKNAEISLYDGATLNLASNSVKLNGNVWMGRLQYVGAYLAPSYSTINTSKVTGEVNFNHLTVGDHNAAQAGIIASNKTHIGTLDLWQSAGLNIIAPPGGKDTVVNIDRINTKADGTIKVGGFKASLTTNAAHLNIGKGGVNLSNQASGRTLLVENLTGNITVDGPLRVNNQVGGYALAGSSANFEFKAGVDTKNGTATFNNDISLGRFVNLKVDAHTANFKGIDTGNGGFNTLDFSGVTNKVNINKLITASTNVAVKNFNINELIVKTNGVSVGEYTHFSEDIGSQSRINTVRLETGTRSIFSGGVKFKSGEKLVIDEFYYSPWNYFDARNIKNVEITRKFASSTPENPWGTSKLMFNNLTLGQNAVMDYSQFSNLTIQGDFINNQGTINYLVRGGKVATLNVGNAAAMMFNNDIDSATGFYKPLIKINSAQDLIKNTEHVLLKAKIIGYGNVSTGTNGISNVNLEEQFKERLALYNNNNRMDTCVVRNTDDIKACGMAIGNQSMVNNPDNYKYLIGKAWKNIGISKTANGSKISVYYLGNSTPTENGGNTTNLPTNTTNNARFASYA
notes: Engineered polypeptide derived from the H. pylori VacA s1m1 family, expressed in CHO or HEK cells and purified

The target of assay [1] is B2. The assay can be described thus: SPR (Biacore T200), TGFβ R1 amine-coupled on CM5, multi-cycle, two-state kinetic model. For orientation: SPR reads the build-up and loss of mass on a sensor chip optically.
Assay [2] concerns the target B2. The assay can be described thus: SPR (Biacore T200), TGFβ R1 amine-coupled on CM5, equilibrium model.
The target in assay [3] is T1, human TGFβ receptor 2 (human, UniProt P37173 23-166, limits assumed).
T1 construct: Immobilised on a CM5 sensor by direct amine coupling; also called TGFβ R2; TGFB-R2
T1 sequence (P37173 23-166 limits assumed): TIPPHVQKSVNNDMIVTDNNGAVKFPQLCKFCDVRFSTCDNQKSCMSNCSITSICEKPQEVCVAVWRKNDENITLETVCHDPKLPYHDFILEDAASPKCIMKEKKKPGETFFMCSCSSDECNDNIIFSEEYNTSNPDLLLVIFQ
Briefly: SPR (Biacore T200), TGFβ R2 amine-coupled on CM5, equilibrium model.

Assay [4] has as its target T1, human TGFβ receptor 2. The assay can be described thus: SPR (Biacore T200), TGFβ R2 amine-coupled on CM5, multi-cycle, two-state kinetic model.

The values that follow come from EP4669337B1 (ATOPIA THERAPEUTICS SA, dated 2025).

With B1, in assay [1], the Kd came to 2310 nM, the koff is 0.603 s⁻¹ and the kon amounted to 220000 M⁻¹ s⁻¹. The equilibrium dissociation constant (Kd) in assay [2] turned out to be 2900 nM.
Molecule B2 gave a Kd in assay [3] of 5.61 µM. In assay [4], this molecule had an equilibrium dissociation constant (Kd) of 5.07 µM, a koff of 6670 s⁻¹ and a kon of 1.08e+09 M⁻¹ s⁻¹.

By Kd is commonly meant the equilibrium constant for the complex coming apart. In general, koff refers to the rate constant with which the complex falls apart. Higher therefore signals a short-lived complex. As a reminder, the kon is the second-order rate constant of association.
